Data set [1] has as its target mouse aryl hydrocarbon receptor nuclear transport protein (ARNT) (mouse) (UniProt P53762).
The target in data set [2] is HIF-1alpha (Homo sapiens) (UniProt Q16665). The data set can be described thus: cell_activity. The note with it: 293 cells, larger amounts of plasmid.
The test system of data set [3] is EPAS1/ARNT heterodimer (cotransfected) (Homo sapiens (EPAS1) / Mus musculus? (ARNT)). The data set can be described thus: cell_activity. The following applies: ARNT-deficient c4 cells; EPAS1 alone 1.8-fold; Hepa1c1c7 with EPAS1 9-fold.
The target in the next data set is EPAS1 (Homo sapiens) (UniProt Q99814). Nature of the data set: cell_activity. The note with it: 293 cells, endogenous ARNT.
Chain of EPAS1 (Homo sapiens) (Q99814 whole entry A60E): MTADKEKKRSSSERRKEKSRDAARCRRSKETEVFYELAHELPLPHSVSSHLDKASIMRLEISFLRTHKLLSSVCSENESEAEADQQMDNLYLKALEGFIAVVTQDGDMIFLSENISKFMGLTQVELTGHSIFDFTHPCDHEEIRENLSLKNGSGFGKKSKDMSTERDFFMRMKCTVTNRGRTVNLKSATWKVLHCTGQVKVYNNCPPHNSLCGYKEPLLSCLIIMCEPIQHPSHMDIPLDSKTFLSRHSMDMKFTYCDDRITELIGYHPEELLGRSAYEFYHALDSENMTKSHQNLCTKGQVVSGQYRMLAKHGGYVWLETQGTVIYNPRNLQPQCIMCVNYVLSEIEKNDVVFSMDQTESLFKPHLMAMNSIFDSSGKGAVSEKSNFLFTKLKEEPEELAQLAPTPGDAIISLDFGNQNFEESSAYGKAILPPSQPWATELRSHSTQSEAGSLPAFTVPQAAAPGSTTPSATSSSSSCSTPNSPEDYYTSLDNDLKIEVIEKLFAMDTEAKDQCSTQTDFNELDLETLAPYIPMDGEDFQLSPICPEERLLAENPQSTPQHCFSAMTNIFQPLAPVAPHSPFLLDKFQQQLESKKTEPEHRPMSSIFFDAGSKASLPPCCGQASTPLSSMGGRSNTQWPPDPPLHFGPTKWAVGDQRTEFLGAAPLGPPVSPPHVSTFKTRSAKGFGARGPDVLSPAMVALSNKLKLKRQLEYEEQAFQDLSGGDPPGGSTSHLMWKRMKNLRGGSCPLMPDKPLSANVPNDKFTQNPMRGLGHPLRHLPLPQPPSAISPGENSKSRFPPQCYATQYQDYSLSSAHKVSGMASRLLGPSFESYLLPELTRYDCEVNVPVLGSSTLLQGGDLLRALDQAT

Chain of HIF-1alpha (Homo sapiens) (Q16665 whole entry): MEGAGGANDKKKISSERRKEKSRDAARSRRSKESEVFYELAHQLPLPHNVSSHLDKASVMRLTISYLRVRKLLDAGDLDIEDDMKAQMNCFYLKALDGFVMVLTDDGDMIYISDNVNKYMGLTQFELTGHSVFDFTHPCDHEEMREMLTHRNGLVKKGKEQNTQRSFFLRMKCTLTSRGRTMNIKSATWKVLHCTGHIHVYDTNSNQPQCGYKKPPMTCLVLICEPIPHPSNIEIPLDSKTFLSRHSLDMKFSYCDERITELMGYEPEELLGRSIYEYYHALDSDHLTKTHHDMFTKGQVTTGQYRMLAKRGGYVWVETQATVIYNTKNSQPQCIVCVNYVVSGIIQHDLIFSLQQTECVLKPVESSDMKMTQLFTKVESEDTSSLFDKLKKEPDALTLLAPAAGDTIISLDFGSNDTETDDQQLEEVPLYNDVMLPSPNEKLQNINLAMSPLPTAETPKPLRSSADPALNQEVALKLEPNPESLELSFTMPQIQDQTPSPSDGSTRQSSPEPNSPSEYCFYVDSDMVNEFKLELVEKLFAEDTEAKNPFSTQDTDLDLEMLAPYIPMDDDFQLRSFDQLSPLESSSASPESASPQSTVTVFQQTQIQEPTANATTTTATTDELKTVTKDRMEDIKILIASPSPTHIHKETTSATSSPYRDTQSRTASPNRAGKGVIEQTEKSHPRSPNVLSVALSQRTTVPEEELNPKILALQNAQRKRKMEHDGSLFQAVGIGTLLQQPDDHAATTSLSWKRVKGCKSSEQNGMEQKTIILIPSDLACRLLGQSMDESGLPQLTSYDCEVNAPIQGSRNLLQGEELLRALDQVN

human EPAS1 protein had a luciferase activity of the pRE-Elb-LUC reporter in ARNT-deficient c4 hepatoma cells in data set [1] of 12 fold.
Consider “three copies of 50-nt EPO hypoxia-inducible enhancer in luciferase reporter”, for which the activity (fold induction) in data set [2] worked out at 7; in data set [3], 12; with EPAS1 (Homo sapiens), 12.

The record behind these values is patent US5695963.
